From article doi:10.1101/2024.09.12.612748, “Analysis of polyclonal and monoclonal antibody to the influenza virus nucleoprotein in different oligomeric states” (bioRxiv, 2024) come the findings set out here.

The target in test [1] is T1, recombinant nucleoprotein (NP) from influenza A/Brisbane/10/2007 (H3N2) (Influenza A virus A/Brisbane/10/2007 …).
T1 construct: also called rNP; rNP-A
Nature of the test: BLI; Octet Red 96; […] (AMC) […] (6.25–200 nM), 1X PBS, association 300 s, dissociation 3,600 s, global 1:1 fit. Particulars: both partners purified. Background: Biolayer interferometry detects binding as a change in optical thickness at a sensor tip.

Test [2] has as its target T2, NP in H1N1 viral lysate (A/Puerto Rico/8/34) (Influenza A virus (strain A/Puerto …, UniProt P03466)).
T2 construct: also called viral NP; NP from lysed influenza virus
Description: immunoblot. The settings on record: one partner purified.

The target in test [3] is T3, recombinant NP of influenza A/PR/8/34 (H1N1) purified from bacteria (Influenza A virus (strain A/Puerto …, UniProt P03466)).
T3 construct: source: E. coli Rosetta 2 (DE3), purified (His GraviTrap TALON)
Nature of the test: immunoblot. Particulars: both partners purified. A general note: A western blot detects proteins with antibodies after separation by electrophoresis.

The term Kd denotes the equilibrium constant for the complex coming apart.

B1: anti-NP mouse monoclonal antibody HB65 (antibody, V domains shown)
VH: EVKLVESGGALVNPGGSLKLSCAASGFIFSSYAMSWIRQTPEKRLEWVASTSGGGTTYYLDSVRGRFTISRDNARRILYLQMTSLRSEDTAIYFCGRDGNWFTSWGQGTLVTVSI
VL: NIVMTQSPKSMSMSVGERVTLTCKASENVVTYVSWYQQKPEQSPKLLIYGASNRYTGVPDRFTGSGSATDFTLTISSVQAEDLADYHCGQGYSYPYTFGGGTKLEIK
notes: also called mAb HB65; IgG HB65; copies: 2 + 2
With B1, the Kd in test [1] was 120 ± 21 nM. Also, the binding result in test [2] and in test [3] was “binds” in each case.
